Laboratory results published in US20250277003A1.

Assays:
[1] = molecular target: SARS-CoV-2 spike receptor-binding domain, wildtype (CoV-2 RBD WT) (SARS-CoV-2) (UniProt P0DTC2); test: bead flow cytometry
[2] = molecular target: BatCoV Anlong-103 spike RBD (BatCoV Anlong-103); test: bead flow cytometry

Substance | gMFI [1] | gMFI [2]
mAb S309 (antibody) | 8370 | 69.3
mAb CR3022 (antibody) | 25800 | 12900
